Experimental data taken from patent US10450368 (DUKE UNIVERSITY, dated 2019).

B1: CH235.13 (antibody, V domains shown)
VH: QVQLVQSGGGVKRPGSTTTISCVASGYSFNDYYIHWVRQAPGQGLEVLGFIDPSNGRTNYAGAFGDRFSMYRDKSMETLYMDLRNLRSDDTAMYYCVRNVGTAGSLLHYDHWGTGSKIIVSS
VL: EIVLTQSPATLSASPGERVTLTCRASRGVRNNVAWYQHNVGQSPRLLIYDASTRAPGIPARFSGSASGTEFTLAISSIQSEDFTLYYCHQYNNWWTFGQGTRVDIN
B2: CH555 (antibody, V domains shown)
VH: QVQLVQSGATVKKPRASVTLSCRTSGYNFIDYFIHWVRRAPGQRLEVMGYIDPSRGRPDYAPNFRDRVSLYRDTSMSIVYLDLRDLTPDDTAIYYCVRSEGTEGTVLHYDHWGPGTRVTVSP
VL: EIVLTQSPDTLSASPGERVTLSCRASQSVGTKVAWYRHVRGQPPRLLIYGASTRAAGIPARFSGGGSGTNFTLIINNFQSEDFAEYLCQQYKSWWTFGQGTKVDNK
notes: also called CH235.10
B3: CH556 (antibody, V domains shown)
VH: QVQLVQSGGTVKSPGTSVTLSCKTSGYNFIDYYIHWVRRAPGQRPELMGYIDPSHGRPDYEGKFRDRISLYRDTSTSVVYMDVRGLRLDDTALYYCVRGGGVEVSSNHYDHWGPGTMVFVSP
VL: ETTLTQSPDTLSASPGERVTLSCRAAQSVGSQVAWFRHIRGQPPRLLISGASTRAAGVPARFSGSGSGTDFTLTISGMQSEDFAEYFCQQYHMWWTFGQGTRVDKN
notes: also called CH235.11
B4: CH235 UCA (antibody, V domains shown)
VH: QVQLVQSGAEVKKPGASVKVSCKASGYTFTSYYMHWVRQAPGQGLEWMGIINPSGGSTSYAQKFQGRVTMTRDTSTSTVYMELSSLRSEDTAVYYCARDVGTEGSLLHFDYWGQGTLVTVSS
VL: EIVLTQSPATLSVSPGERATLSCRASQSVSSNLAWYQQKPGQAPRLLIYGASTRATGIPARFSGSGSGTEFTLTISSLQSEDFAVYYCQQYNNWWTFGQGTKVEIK
notes: also called unmutated common ancestor of the CH235 lineage

The binders below were run against CH0505_CON D7gp120/293i (assay: ELISA).
For B1, the LogAUC was 6.23. B2 was tested, and the LogAUC was 7.23. For B3, the LogAUC was 0.26. B4 gave a LogAUC of 0.

The binders below were run against T1, CH505w020.14D8gp120 (assay: ELISA).
T1 construct: also called CH505w20.14 gp120
Work on B1 yielded a LogAUC of 6.14. In the case of B2, the LogAUC is reported as 5.63. Binder B3 has a LogAUC of 0.11. With B4 the LogAUC was 0.

These binders were tested against T2, CH505w030.20D8gp120/293F (assay: ELISA).
T2 construct: also called CH505w30.20 gp120
For B1, the LogAUC was 5.41. For B2, the LogAUC was 5.62. Binder B3 has a LogAUC of 0.69. With B4 the LogAUC was 0.

The binders below were run against T3, CH505.w30.12D8gp120 (assay: ELISA).
T3 construct: also called CH505w30.12 gp120
B1 showed a LogAUC of 1.05. Work on B2 yielded a LogAUC of 0. Binder B3 has a LogAUC of 0. B4 was tested, and the LogAUC was 0.

The binders below were run against CH505w136.B18D8gp120 (assay: ELISA).
For B1, the LogAUC was 1.76. B2 was tested, and the LogAUC was 5.54. B3 gave a LogAUC of 0.11. B4 showed a LogAUC of 0.

Each binder was assayed against CH505.M5D8gp120293F (assay: ELISA).
Work on B1 yielded a LogAUC of 6.53. B2 was tested, and the LogAUC was 2.62. With B3 the LogAUC was 1.26. With B4 the LogAUC was 0.24.

The binders below were run against CH505.M10D8gp120 (assay: ELISA).
B1 showed a LogAUC of 6.38. In the case of B2, the LogAUC is reported as 1.06. Work on B3 yielded a LogAUC of 1.06. B4 gave a LogAUC of 0.

Each binder was assayed against CH505.M11D8gp120/293F (assay: ELISA).
B1 gave a LogAUC of 5.35. For B2, the LogAUC was 5.05. B3 was tested, and the LogAUC was 0.11. With B4 the LogAUC was 0.

What follows are binders tested against CH505.M19D8gp120 (assay: ELISA).
Work on B1 yielded a LogAUC of 2.89. B2 showed a LogAUC of 0. B3 gave a LogAUC of 0.09. B4 gave a LogAUC of 0.

The binders below were run against CH505.M21D8gp120/293F (assay: ELISA).
B1 showed a LogAUC of 0. In the case of B2, the LogAUC is reported as 0. B3 gave a LogAUC of 0.1. B4 showed a LogAUC of 0.

What follows are binders tested against CH505.M9D8gp120/293F (assay: ELISA).
Work on B1 yielded a LogAUC of 0. Binder B2 has a LogAUC of 0.07. B3 showed a LogAUC of 0.23. B4 showed a LogAUC of 0.

These binders were tested against CH505.M7D8gp120/293F (assay: ELISA).
With B1 the LogAUC was 0. For B2, the LogAUC was 0.09. Work on B3 yielded a LogAUC of 0. With B4 the LogAUC was 0.

The binders below were run against T4, CH505.TF mutant gp120 M6 (HIV-1) (assay: ELISA).
T4 construct: domain: gp120
B1 was tested, and the LogAUC was 6.07. For B2, the LogAUC was 5.67. Binder B3 has a LogAUC of 0.09. In the case of B4, the LogAUC is reported as 0.

Each binder was assayed against T5, CH505.TF mutant gp120 M8 (HIV-1) (assay: ELISA).
T5 construct: domain: gp120
B1 gave a LogAUC of 0. Work on B2 yielded a LogAUC of 0. Work on B3 yielded a LogAUC of 0.29. B4 gave a LogAUC of 0.

What follows are binders tested against T6, CH505.TF mutant gp120 M20 (HIV-1) (assay: ELISA).
T6 construct: domain: gp120
B1 showed a LogAUC of 0. With B2 the LogAUC was 0. B3 gave a LogAUC of 0.28. B4 gave a LogAUC of 0.

Each binder was assayed against T7, SSB (UniProt P05455 1-408) (assay: ELISA, LogAUC grade).
T7 sequence: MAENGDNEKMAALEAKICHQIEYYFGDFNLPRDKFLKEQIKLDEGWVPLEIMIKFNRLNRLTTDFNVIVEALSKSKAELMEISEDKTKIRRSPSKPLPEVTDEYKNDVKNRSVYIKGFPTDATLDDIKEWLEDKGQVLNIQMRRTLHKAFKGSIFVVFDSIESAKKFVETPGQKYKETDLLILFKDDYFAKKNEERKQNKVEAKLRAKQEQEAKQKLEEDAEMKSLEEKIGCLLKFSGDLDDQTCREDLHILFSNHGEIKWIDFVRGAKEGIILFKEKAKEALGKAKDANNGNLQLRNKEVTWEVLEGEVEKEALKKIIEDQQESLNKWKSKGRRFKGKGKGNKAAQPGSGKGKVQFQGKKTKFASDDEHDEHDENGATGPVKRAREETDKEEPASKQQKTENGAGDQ
B4: no binding.

The binders below were run against T8, Scl-70 (UniProt P11387 1-765) (assay: ELISA, LogAUC grade).
T8 sequence: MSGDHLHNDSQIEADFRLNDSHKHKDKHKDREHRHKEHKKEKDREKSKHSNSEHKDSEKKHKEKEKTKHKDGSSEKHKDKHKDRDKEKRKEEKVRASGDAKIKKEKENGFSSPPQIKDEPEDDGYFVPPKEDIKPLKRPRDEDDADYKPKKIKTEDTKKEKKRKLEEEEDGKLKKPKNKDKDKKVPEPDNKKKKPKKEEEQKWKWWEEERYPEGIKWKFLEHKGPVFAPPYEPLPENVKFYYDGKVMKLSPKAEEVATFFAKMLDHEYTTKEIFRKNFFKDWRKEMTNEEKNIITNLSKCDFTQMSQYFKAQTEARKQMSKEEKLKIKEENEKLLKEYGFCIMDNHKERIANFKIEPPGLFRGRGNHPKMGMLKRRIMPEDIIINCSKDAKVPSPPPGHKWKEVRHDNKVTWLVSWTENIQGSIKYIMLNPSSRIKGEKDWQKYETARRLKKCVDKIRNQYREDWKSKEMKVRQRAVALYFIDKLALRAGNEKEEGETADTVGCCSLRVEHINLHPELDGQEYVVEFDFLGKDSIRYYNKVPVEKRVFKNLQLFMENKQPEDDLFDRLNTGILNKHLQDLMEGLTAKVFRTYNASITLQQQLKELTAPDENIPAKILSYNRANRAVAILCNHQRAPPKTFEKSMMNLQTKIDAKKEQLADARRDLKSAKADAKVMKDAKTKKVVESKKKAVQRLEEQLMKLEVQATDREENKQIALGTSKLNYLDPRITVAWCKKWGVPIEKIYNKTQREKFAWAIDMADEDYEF
B1: no binding. B2: no binding. B3: no binding. B4: no binding.

The binders below were run against T9, Jo-1 (UniProt P12081 1-509) (assay: ELISA, LogAUC grade).
T9 sequence: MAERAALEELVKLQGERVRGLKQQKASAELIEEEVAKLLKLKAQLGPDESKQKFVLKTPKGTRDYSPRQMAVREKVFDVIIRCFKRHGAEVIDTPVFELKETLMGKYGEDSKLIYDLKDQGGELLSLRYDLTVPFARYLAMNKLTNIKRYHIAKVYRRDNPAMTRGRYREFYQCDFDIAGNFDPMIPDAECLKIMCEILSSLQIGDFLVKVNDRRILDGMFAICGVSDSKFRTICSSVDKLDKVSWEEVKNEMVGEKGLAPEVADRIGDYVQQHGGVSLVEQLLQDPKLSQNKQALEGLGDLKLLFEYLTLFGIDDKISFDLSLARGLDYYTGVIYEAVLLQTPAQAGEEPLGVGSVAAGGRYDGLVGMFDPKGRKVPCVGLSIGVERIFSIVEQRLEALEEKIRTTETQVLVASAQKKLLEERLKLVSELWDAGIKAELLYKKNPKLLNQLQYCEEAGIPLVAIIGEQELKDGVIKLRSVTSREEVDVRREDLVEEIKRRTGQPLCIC
B4: no binding.

What follows are binders tested against T10, Centromere B (UniProt P07199 1-599) (assay: ELISA, LogAUC grade).
T10 construct: also called Cent B
T10 sequence: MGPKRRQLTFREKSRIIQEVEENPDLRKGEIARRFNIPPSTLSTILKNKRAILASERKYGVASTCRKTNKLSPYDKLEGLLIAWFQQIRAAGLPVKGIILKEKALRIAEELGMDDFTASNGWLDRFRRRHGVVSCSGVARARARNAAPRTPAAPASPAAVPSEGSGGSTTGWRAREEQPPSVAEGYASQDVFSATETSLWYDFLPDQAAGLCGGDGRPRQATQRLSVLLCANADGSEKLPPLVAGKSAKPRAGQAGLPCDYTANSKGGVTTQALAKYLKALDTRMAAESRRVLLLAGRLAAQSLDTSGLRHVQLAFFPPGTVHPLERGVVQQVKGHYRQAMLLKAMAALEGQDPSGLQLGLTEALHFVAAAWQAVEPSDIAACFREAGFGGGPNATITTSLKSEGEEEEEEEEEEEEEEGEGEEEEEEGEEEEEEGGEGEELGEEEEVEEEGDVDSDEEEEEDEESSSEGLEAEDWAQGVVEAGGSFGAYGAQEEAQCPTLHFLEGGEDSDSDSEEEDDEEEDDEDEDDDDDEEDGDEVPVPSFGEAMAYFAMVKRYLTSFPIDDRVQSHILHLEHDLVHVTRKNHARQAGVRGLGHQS
B4: no binding.
